In assay [1] the target is carcinoembryonic antigen (CEA) expressed by LS174T human colon carcinoma tumors (human (LS174T human colon carcinoma cells)) (UniProt P06731). Nature of the assay: cell-based or functional assay.
The target of assay [2] is T1, carcinoembryonic antigen (CEA), form not stated (UniProt P06731 35-685, limits assumed).
T1 sequence (looked up): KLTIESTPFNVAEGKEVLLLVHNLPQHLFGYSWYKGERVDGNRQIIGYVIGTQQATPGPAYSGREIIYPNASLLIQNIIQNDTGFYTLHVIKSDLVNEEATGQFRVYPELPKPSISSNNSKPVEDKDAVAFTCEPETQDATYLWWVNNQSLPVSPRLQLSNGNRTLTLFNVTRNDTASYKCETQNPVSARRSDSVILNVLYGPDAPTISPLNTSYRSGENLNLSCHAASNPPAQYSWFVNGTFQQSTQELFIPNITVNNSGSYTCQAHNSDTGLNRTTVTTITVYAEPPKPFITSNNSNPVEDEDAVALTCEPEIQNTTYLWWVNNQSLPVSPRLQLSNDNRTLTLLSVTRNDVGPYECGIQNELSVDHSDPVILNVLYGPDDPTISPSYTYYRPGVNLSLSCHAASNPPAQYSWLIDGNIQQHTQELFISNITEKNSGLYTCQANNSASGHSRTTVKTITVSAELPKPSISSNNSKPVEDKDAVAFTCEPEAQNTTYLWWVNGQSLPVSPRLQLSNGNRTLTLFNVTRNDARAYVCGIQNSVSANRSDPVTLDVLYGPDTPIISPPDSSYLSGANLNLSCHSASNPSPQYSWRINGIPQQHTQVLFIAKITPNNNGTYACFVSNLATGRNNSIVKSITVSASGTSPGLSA
Nature of the assay: not stated; given as a property of the peptide.

As a reminder, the Kd is the equilibrium constant for the complex coming apart.

No end group written: not given here.

With anti-CEA T84.66 diabody (Db), in assay [1], the CEA positive-to-negative tumor uptake ratio at 51 h was determined as 13.

B1: CEA specific, cyclic peptide SDWVCEFIKSQWFCNVLASG (peptide)
peptide: SDWVCEFIKSQWFCNVLASG-HyNic
modifications: also: cyclic, bond type and places not given here
notes: also called anti-CEA peptide; CEA specific peptide
Turning to B1, in assay [2], binding was put at a Kd of 160 nM.

Source of the values: patent US20120076728A1 (University of California, published 2012).
